Paper PMC3158780

Biological target: insoluble type I collagen (UniProt P02453)
Test: co-sedimentation; batch binding to 5 mg insoluble substrate; protein 15 µg/ml in 80 µl buffer A (50 mM Tris-HCl, 10 mM CaCl2, 3 M NaCl, pH 8.0), 0°C, 60 min; supernatant after centrifugation on SDS-PAGE

isolated CTE domain of SptA (CTE*) (domain or fragment)
percent bound: 50%
